# Measurements from the DeepSol protein solubility set.
# Experiment: soluble on expression in E. coli; label from the status in PepcDB or PDB records
row,Sequence,soluble on expression in E. coli
1,YFEVNITMSSGLWSQEKVTSPYWEERIFYLLLQECSVTDKQTQKLLKVPKGSIGQYIQDRSVGHSRIPSAKGKKNQIGLKILEQPHAVLFVDEKDVVEINEKFTELLLAITNCEERFSLFKNRNRLSKGLQIDVGCPVKVQLRSGEEKFPGVVRFRGPLLAERTVSGIFFGVELLEEGRGQGFTDGVYQGKQLFQCDEDCGVFVALDKLELIEDDDTALESDYAGPGDTMQVELPPLEINSRVSLKVGETIESGTVIFCDVLPGKESLGYFVGVDMDNPIGNWDGRFDGVQLCSFACVESTILLHINDIIPESVTQERRPPKLAFMSRGVGDKGSSSHNKPKATGSTSDPGNRNRSELFYTLNGSSVDSQPQSKSKNTWYIDEVAEDPAKSLTEISTDFDRSSPPLQPPPVNSLTTENRFHSLPFSLTKMPNTNGSIGHSPLSLSAQSVMEELNTAPVQESPPLAMPPGNSHGLEVGSLAEVKENPPFYGVIRWIGQPPGLNEVLAGLELEDECAGCTDGTFRGTRYFTCALKKALFVKLKSCRPDSRFASLQPVSNQIERCNSLAFGGYLSEVVEENTPPKMEKEGLEIMIGKKKGIQGHYNSCYLDSTLFCLFAFSSVLDTVLLRPKEKNDVEYYSETQELLRTEIVNPLRIYGYVCATKIMKLRKILEKVEAASGFTSEEKDPEEFLNILFHHILRVEPLLKIRSAGQKVQDCYFYQIFMEKNEKVGVPTIQQLLEWSFINSNLKFAEAPSCLIIQMPRFGKDFKLFKKIFPSLELNITDLLEDTPRQCRICGGLAMYECRECYDDPDISAGKIKQFCKTCNTQVHLHPKRLNHKYNPVSLPKDLPDWDWRHGCIPCQNMELFAVLCIETSHYVAFVKYGKDDSAWLFFDSMADRDGGQNGFNIPQVTPCPEVGEYLKMSLEDLHSLDSRRIQGCARRLLCDAYMCMYQSPTMSLYK,soluble
2,YLLGAFKPACNISITFSDGKNRKQVPMKKENGQTALVPLFHSQDTISGKVCIEPYQGKKVEHNGVKVELLGQIANYSYDSFLLLTTVRELDVPGEIYERKTYPFEFPTVEMPYETYNGVNVRLRYVLKVTVTRGYAGSILEYQELVRNYAPLPDINNSIKMEVGIEDCLHIEFEYNKSKYHLKDVILGKIYFLLVRIKMKNMDLEIRRRESTGAGANTHVETETLAKFELMDGTPVRGESIPVRLFLAPYDLTPTHRNINNKFSVKYYLNLVLVDEEDRRYFKQQEITLYRLKEDASS,soluble
3,YNPLNSVEDSTNRRDTVLQNMVAAGYIDKNQETKAAEVDMTSQLHDKYEGKISDYRYPSYFDAVVNEAVSKYNLTEEEIVNNGY,not soluble
4,YQNYGIMAAIDHINALKDLVKRFPKFADLPKIYGGGSYGGYLSLLIAKIAPWYVDGVIDNSGVCLPFLACILGREMNQGEFYFEGSGYRLYCFVYKYWNRNMNSSYYFGDENYLIRAVLNSNHLQIQSNLNKNTIFVSYHSIQDMGAPVQNKIELYKCYQELGYDATLHLIKDEN,not soluble
5,YQWLPNIGSGEAGADWGLRLTSRDMGKFGLMWLNKGQYNGTKIVGEEWLNELRKSKFYSYEMGYGLHFWQVSNVENGVAAVGIGEQYIVAIPNKNAVIVTTAGNYETRSRPVLTLIQQLSSLL,not soluble
